One experiment has as its target NRG1 (UniProt Q02297). Briefly: cell-based or functional assay.
The target of another experiment is T1, HF310 (HER3-500) (human, UniProt P21860 20-519).
T1 construct: also called HER3-501; HF310T
Nature of the experiment: 125I-HRG cross-linking normalised by anti-HER3 Western blot densitometry.

For experiment [1], the target named is EN2320 (HER3/Fc homodimer) (human, UniProt P21860 20-640). Nature of the experiment: SPR (Biacore 8K), trap on anti-human Fc chip. (Surface plasmon resonance follows binding to a sensor surface in real time, without labels.)
EN2320 (HER3/Fc homodimer), sequence (P21860 20-640 Y265A): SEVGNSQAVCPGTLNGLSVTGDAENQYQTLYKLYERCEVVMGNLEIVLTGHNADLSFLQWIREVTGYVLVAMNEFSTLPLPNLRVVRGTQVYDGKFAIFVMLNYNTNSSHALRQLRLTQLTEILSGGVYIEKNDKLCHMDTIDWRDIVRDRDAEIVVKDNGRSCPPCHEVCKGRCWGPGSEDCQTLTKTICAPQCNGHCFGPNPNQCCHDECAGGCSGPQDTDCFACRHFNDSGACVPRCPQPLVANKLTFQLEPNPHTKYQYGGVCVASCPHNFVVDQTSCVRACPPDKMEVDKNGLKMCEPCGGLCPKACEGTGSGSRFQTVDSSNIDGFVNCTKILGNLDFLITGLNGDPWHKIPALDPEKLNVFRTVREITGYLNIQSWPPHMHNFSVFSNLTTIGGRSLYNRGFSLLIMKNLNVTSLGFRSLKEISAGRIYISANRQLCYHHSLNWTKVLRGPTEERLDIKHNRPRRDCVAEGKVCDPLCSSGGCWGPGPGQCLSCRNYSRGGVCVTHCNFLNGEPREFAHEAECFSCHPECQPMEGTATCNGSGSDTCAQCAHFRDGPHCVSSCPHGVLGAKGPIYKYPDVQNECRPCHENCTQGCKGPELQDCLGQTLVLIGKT

T1 sequence (P21860 20-519 limits assumed): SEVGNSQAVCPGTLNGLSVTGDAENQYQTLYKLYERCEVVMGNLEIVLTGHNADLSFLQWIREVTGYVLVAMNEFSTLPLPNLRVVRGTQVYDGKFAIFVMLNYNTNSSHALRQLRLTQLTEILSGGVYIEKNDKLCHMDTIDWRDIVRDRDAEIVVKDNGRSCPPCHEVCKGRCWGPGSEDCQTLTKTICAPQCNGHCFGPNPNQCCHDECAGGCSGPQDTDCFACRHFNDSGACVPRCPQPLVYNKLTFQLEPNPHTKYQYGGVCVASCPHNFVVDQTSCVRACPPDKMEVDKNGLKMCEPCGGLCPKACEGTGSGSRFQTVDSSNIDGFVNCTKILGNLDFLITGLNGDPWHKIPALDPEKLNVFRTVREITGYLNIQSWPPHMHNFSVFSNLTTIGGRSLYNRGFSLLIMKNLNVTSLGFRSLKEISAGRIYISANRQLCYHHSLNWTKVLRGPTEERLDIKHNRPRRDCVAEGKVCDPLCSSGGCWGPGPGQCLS
Description for HF310 (HER3-500): Binding was performed by mixing increasing amounts of supernatants (from 2.5 μl-20 μl of supernatant) with 5 nM of ¹²⁵I-HRG in a total volume of 20 μl of Hepes buffer (pH 7.5) at room temperature for 2 hours. 1 mM of the BS₃ crosslinker was added at the end of the binding assay to cross-link the bound molecules. Binding reactions were separated on an SDS-PAGE gel. The protein gel was dried and exposed to a film for 2 and 6 hours.
A parallel Western blot with an anti-HER3 antibody (R&D Systems), followed by densitometry was used to estimate relative HER3-derivative levels and then to normalize ligand binding to each protein based on equal number of binding sites, which are the equivalent to anti-HER3 binding sites.

Turning to “HER3^Y246A/Fc (from UniProt P21860 20-640) (Fc fusion)”, the Approximate EC50, inhibition of NRG1-β-induced HER3 phosphorylation (MCF7 cells, phosphotyrosine ELISA) with NRG1 came out at 1.5 nM.

B1: heregulin (HRG) (ligand, UniProt Q02297-6 177-241, looked up)
chain: SHLVKCAEKEKTFCVNGGECFMVKDLSNPSRYLCKCPNEFTGDRCQNYVMASFYKHLGIEFMEAE
modifications: also: 125I label, site not given here
notes: also called HRG1β1
Take B1: the binding result in the experiment with HF310 (HER3-500) is listed as “binds”.

B2: NRG1 (ligand, UniProt Q02297-6 177-241, looked up)
chain: B1 chain
notes: also called NRG1_R&D; NRG1-R&D
Take B2: in experiment [1], the Kd (as a rule, the constant that tells how readily two partners part at equilibrium) was found to be 0.389 nM; the koff (in general, a measure of how fast the partners let go of each other) was 0.379 s⁻¹; the kon – broadly, the rate constant with which the complex forms – amounted to 9.76e+08 M⁻¹ s⁻¹.

B3: NRG2-beta (ligand, UniProt O14511-3 341-405, looked up)
chain: HARKCNETAKSYCVNGGVCYYIEGINQLSCKCPNGFFGQRCLEKLPLRLYMPDPKQKHLGFELKE
In experiment [1], B3 came in with a Kd of 43.3 nM, a koff of 0.0247 s⁻¹ and a kon of 571000 M⁻¹ s⁻¹.

The record behind these values is patent US20250388650A1 (ENOSI THERAPEUTICS, published 2025).
